Data from patent US20220298257A1 (ELPIS BIOPHARMACEUTICALS, published 2022).

T1: full-length human CD22 fused with flag and Myc tags at the C-terminus, on HEK293 or K562 cells (human, UniProt P20273 20-847)
T1 construct: whole, on cells; also called CD22/K562; CD22/HEK293; not shown: C-terminal flag and Myc tags of the pCMV6-Entry vector
T1 sequence (looked up): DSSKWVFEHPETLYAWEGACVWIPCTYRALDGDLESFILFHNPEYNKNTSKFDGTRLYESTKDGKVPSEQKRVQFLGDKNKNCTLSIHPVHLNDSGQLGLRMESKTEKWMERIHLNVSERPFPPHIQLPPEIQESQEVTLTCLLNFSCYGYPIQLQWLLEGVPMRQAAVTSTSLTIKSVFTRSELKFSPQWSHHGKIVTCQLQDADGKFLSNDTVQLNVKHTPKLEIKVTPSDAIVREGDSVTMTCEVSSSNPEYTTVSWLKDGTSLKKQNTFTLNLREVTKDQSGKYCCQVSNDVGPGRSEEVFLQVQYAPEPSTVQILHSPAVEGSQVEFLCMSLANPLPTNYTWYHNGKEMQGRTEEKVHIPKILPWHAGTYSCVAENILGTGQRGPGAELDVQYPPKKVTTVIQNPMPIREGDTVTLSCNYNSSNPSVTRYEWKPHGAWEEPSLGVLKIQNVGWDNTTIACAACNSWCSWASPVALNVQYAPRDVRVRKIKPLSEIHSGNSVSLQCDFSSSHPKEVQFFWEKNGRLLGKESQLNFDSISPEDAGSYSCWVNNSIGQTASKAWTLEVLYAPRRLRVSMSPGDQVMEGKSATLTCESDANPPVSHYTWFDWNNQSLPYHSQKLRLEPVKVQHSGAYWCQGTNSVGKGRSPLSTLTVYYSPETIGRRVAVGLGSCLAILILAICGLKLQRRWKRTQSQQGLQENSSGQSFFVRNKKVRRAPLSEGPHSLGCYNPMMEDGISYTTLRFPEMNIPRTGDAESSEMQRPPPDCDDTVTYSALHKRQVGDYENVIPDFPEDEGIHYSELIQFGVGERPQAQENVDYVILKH

T2: human CD22-Fc fusion protein (human, UniProt P20273 20-687, limits assumed)
T2 construct: also called recombinant CD22-Fc fusion protein; not shown: Fc part
T2 sequence (looked up): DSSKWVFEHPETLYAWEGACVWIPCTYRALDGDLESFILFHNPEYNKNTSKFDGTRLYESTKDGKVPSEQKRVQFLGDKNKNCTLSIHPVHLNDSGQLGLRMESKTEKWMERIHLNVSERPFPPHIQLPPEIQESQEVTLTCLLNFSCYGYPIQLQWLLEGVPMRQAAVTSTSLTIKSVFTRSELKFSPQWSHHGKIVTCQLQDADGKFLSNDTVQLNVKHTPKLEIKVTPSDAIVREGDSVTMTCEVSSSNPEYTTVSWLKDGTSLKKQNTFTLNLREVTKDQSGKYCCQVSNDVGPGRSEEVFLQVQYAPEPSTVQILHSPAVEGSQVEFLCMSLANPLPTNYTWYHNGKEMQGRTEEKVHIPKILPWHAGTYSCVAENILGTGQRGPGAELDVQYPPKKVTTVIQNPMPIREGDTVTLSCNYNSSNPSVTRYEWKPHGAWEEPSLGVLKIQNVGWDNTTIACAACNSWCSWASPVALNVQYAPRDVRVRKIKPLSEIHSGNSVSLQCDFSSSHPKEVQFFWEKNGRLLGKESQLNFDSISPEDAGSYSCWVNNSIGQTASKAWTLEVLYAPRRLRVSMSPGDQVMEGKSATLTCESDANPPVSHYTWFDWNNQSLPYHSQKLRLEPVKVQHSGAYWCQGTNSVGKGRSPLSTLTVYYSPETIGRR


Assays:
[1] = target: T1, full-length human CD22 fused with flag …; experiment: FACS, scFv titrated on CD22-expressing cells, anti-His Alexa 488
Experimental: The diluted samples were incubated with CD22-expressing HEK293 cells (CD22/HEK293 cells) in 96 wells plate on ice for 1 hour. Cells were spun down at 1200 rpm for 5 minutes at 4° C. to remove unbound antibodies. Cells were then washed once with 200 μL of full medium per well. […] Samples were then spun down at 1200 rpm for 5 minutes at 4° C. and washed twice with 200 uL of 1×PBS per well. The resultant samples were reconstituted in 200 uL of 1×PBS and read on Guava EasyCyte.

[2] = target: T2, human CD22-Fc fusion protein; experiment: SPR Biacore T200; CD22-Fc captured on Protein G chip, scFv as analyte;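 further: run in 1×HBST buffer, with the response of reference flow cell 1 subtracted from the CD22 capture cell and kinetics fitted in Biacore T200 evaluation software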
Experimental: The assay was run with Biacore T200 control software version 2.0. For each cycle, 1 μg/mL of human CD22-Fc fusion protein was captured for 60 seconds at flow rate of 10 ul/min on flow cell 2 in 1×HBST buffer on Protein G sensor chip. […] The flow cells were then regenerated with Glycine pH 2 for 60 seconds at flow rate of 30 ul/mins. […] The kinetics of scFvs binding to CD22 protein was analyzed with Biacore T200 evaluation software 3000. The specific binding response unit was derived from subtraction of binding to reference flow cell 1 from CD22 captured flow cell 2.

EC50 [1]	Kd [2]	koff [2]	kon [2]	Binder
10.4 nM				EP35-A7 scFv (scFv, VH-VL orientation; not shown: C-terminal flag and 6xHIS tag) scFv: EVQLVESRGGVVQPGGSLRLSCAASGFTFSSYGMHWVRQAPGKGLEWVAFIRYDGSNKYYADSVKGRFTISRDNSKNTLYLQMNSLRAEDTAVYYCAKETVTTNYYYYMDVWGKGTTVTVSSGGGGSGGGGSGGGGSDVVMTQSPLSLPVTLGQPASISCRSSRSLEYNDGNTYLNWFHQRPGQSPRRLIYKVSNRDSGVPDRFSGSGSDTDFTLKISRVEAEDVGIYYCMQGTHWPLTFGQGTRLEIK
77 nM				EP35-B05 scFv (scFv, VH-VL orientation; also called EP35-B5; not shown: C-terminal flag and 6xHIS tag) scFv: QVQLVQSGAEVKKPGASVKVSCKASGYTFTSYGISWVRQAPGQGLEWMGWISAYNGNTNYAQKLQGRVTMTTDTSTSTAYMELRSLRSDDTAVYYCARDSGNSPIDYWGQGTLVTVSSGGGGSGGGGSGGGGSEIVMTQSPATLSVSPGEGVTLSCRASQSVSSNLAWYQQRPGQAPRLLIYGASIKATDVPDRFSGGGSGTDFTLSISNLQSEDFAVYYCQQYHTWPPVTFGGGTKVEIK
10 nM	0.219 nM	0.000195 s⁻¹	888000 M⁻¹ s⁻¹	EP97-F01 scFv (scFv, VH-VL orientation; not shown: C-terminal flag and 6xHIS tag) scFv: QVQLVQSGAEVKKPGASVKVSCKASGYTFTSYGISWVRQAPGQGLEWMGWISAYNGNTNYAQKLQGRVTMTTDTSTSTAYMELRSLRSDDTAVYYCARDHIAAAGDYWGQGTLVTVSSGGGGSGGGGSGGGGSEIVMTQSPATLSVSPGEGVTLSCRASQSVSSNLAWYQQRPGQAPRLLIYGASIKATDVPDRFSGGGSGTDFTLSITNLQSEDFAVYYCQQYHTWPPVTFGGGTKVEIK
5.2 nM				EP160-C07 scFv (scFv, VH-VL orientation; also called EP160-007; not shown: C-terminal flag and 6xHIS tag) scFv: QMQLVQSGAEVKKPGASVKVSCKASGYTFTSYGISWVRQAPGQGLEWMGWISAYNGNTNYAQKLQGRVTMTTDTSTSTAYMELRSLRSDDTAVYYCARDAVAGSRGYWGQGTLVTVSSGGGGSGGGGSGGGGSEIVLTQSPATLSVSPGEGVTLSCRASQSVSSNLAWYQQRPGQAPRLLIYGASIKATDVPDRFSGGGSGTDFTLSISNLQSEDFAVYYCQQYHTWPPVTFGEGTKVEIK
4.6 nM				EP35-C8 scFv (scFv, VH-VL orientation; also called EP35-C08; not shown: C-terminal flag and 6xHIS tag) scFv: QVQLVQSGAEVKKPGASVKVSCKASGYTFTSYGISWVRQAPGQGLEWMGWISAYNGNTNYAQKLQGRVTMTTDTSTSTAYMELRSLGSDDTAVYYCARDSGSSDLDYWGQGTLVTVSSGGGGSGGGGSGGGGSEIVMTQSPATLSVSPGEGVTLSCRASQSVSSNLAWYQQKPGQAPRLLMYGASIKATDVPDRFSGGGSGTDFTLSISSLQSEDFAVYYCQQYHTWPPVTFGGGTKVEIK
	11.3 nM	0.00098 s⁻¹	86900 M⁻¹ s⁻¹	EP35-F7 scFv (scFv, also called EP35-F07; not shown: C-terminal flag and 6xHIS tag) scFv: EVQLVQSGGGVVQPGRSLRLSCAASGFTFSSYGMHWVRQAPGKGLEWVAVIWYDGSNKYYADSVKGRFTISRDNSKNTLYLQMNSLRAEDTAVYYCARDGWKGFDYWGQGTTVTVSSGGGGSGGGGSGGGGSEIVLTQSPATLSVSPGEGVTLSCRASQSVSSNLAWYQQRPGQAPRLLIYGASIKATDVPDRFSGGGSGTDFTLSISNLQSEDFAVYYCQQYHTWPPVTFGGGTKVEIK
6.8 nM	5.52 nM	0.00164 s⁻¹	297000 M⁻¹ s⁻¹	EP160-E03 scFv (scFv, VH-VL orientation; not shown: C-terminal flag and 6xHIS tag) scFv: EVQLVQSGGGVVQPGKSLRLSCAASGFTFSSYGMHWVRQAPGKGLEWVAVIWYDGSNKYYADSVKGRFTISRDNSKNTLYLQMNSLRAEDTAVYYCARDGWTGFDYWGQGTTVTVSSGGGGSGGGGSGGGGSEIVLTQSPATLSVSPGEGVTLSCRASQSVSSNLAWYQQRPGQAPRLLIYGASIKATDVPDRFSGGGSGTDFTLSISNLQSEDFAVYYCQQYHTWPPVTFGGGTKVEIK
	14.2 nM	0.00101 s⁻¹	71300 M⁻¹ s⁻¹	EP97-A01 scFv (scFv, VH-VL orientation; not shown: C-terminal flag and 6xHIS tag) scFv: EVQLVQSGGGVVQPGRSLKLSCAASGFTFSSYGMHWVRQAPGKGLEWVAVIWYDGSNKYYADSVKGRFTISRDNSKNTLYLQMNSLRAEDTAVYYCARDGWKGFDYWGQGTTVTVSSGGGGSGGGGSGGGGSEIVLTQSPATLSVSPGEGVTLSCRASQSVSSNLAWYQQRPGQAPRLLIYGASIKATDVPDRFSGGGSGTDFTLSISNLQSEDFAVYYCQQYHTWPPVTFGGGTKVEIK
47 nM				EP35-D6 scFv (scFv, VH-VL orientation; not shown: C-terminal flag and 6xHIS tag) scFv: QVQLVQSGTEVKKPGASVKVSCKASGYTFTNNAITWVRQAPGQGLEWMGYISTSSDNINYAQKFRGRLTLTTDTSTGTAYMELSSLRSDDTATYYCARDGIFGGRDDPWGQGTLVTVSSGGGGSGGGGSGGGGSDIVMTQSPSSLSASVGDRVTITCQASQDISNYLNWYQQKPGKAPKLLIYDASNLETGVPSRFSGSGSETDFTITISSLQPEDIATYYCQQYDNLPLTFGGGTKVR
3.3 nM	0.166 nM	4.19e-05 s⁻¹	252000 M⁻¹ s⁻¹	EP97-G05 scFv (scFv, VH-VL orientation; also called EP097-G05; not shown: C-terminal flag and 6xHIS tag) scFv: EVQLVQSGAEVKKPGASVKVSCKASGYTFTSYGISWVRQAPGQGLEWMGWISAYNGNTNYAQKLQGRVTMTTDTSTSTAYMELRSLRSDDTAVYYCARDYGDPSGDDYWGQGTLVTVSSGGGGSGGGGSGGGGSEIVLTQSPATLSVSPGEGVTLSCRASQSVSSNLAWYQQRPGQAPRLLIYGASIKATDVPDRFSGGGSGTDFTLSISNLQSEDFAVYYCQQYHTWPPVTFGGGTKVEIK
2.9 nM				EP160-G05 scFv (scFv, VH-VL orientation; not shown: C-terminal flag and 6xHIS tag) scFv: EVQLVQSGAEVKKPGASVKVSCKASGYTFTSYGISWVRQAPGQGLEWMGWISAYNGNTNYAQKLQGRVTMTTDTSTSTAYMELRSLRSDDTAVYYCARDPSMDVWGQGTTVTVSSGGGGSGGGGSGGGGSEIVLTQSPATLSVSPGERATLSCRASQSVSSNLAWYQQKPGQAPRLLIYGASTRATGIPARFSGSGSGTEFTLTISSLQSEDFAVYYCQQYNSWPPITFGQGTRLEIK
19.3 nM	15.8 nM	0.000985 s⁻¹	62500 M⁻¹ s⁻¹	EP35-C6 scFv (scFv, VH-VL orientation; also called EP35-C06; not shown: C-terminal flag and 6xHIS tag) scFv: QVQLVESGGGVVQPGGSLRLSCAASGFPFSRFGIHWVRQAPGKGLDWVAFIRTDGGSQHYADSVKGRFTISRDNSENMVYLQMNSLRVDDTALYYCAKDPPRVTGNTGYDYDWGQGVQVTVSSGGGGSGGGGSGGGGSDIVMTQSPDSLAVSLGERATINCKSSQSVLYSANNKNCLAWYQQKSGQPPKLLIYWASTRESGVPGRFSGSGSGTDFTLTISSLQAEDVAVYYCQQYYSPPRTFGQGTKLEIK
0.68 nM	1.84 nM	0.000112 s⁻¹	60900 M⁻¹ s⁻¹	EP160-H02 scFv (scFv, VH-VL orientation; not shown: C-terminal flag and 6xHIS tag) scFv: QVQLVQSGAEVKKPGASVKVSCKASGYTFTSYGISWVRQAPGQGLEWMGGIIAYNGNTNYAQKLQGRVTMTTDTSTSTAYMELRSLRSDDTAVYYCARDPPEYSSSAGTDYWGQGTLVTVSSGGGGSGGGGSGGGGSEIVMTQSPATLSVSPGEGVTLSCRASQSVSSNLAWYQQRPGQAPRLLIYGASIKATDVPDRFSGGGSGTDFTLSITNLQSEDFAVYYCQQYHTWSPVTFGGGTKVEIK
14.2 nM				EP35-E6 scFv (scFv, VH-VL orientation; not shown: C-terminal flag and 6xHIS tag) scFv: QVQLVESGGALVQPGGSLRLSCVVSGFPFSTAWMNWVRQAPGKGLEWVARIKSEAHGGTTHYAPPVQGRFTISRDDSKNTVSLQMNSLKTEDTGVYYCGDFQWGQGTLVTVSSGGGGSGGGGSGGGGSVIWMTQSPSSLSASVGDRITITCQASQDISNFLNWYQQKPGEAPKLLLYDASNLERGVPSRFSGGGSGTDFTLTISSLQPEDIATYFCQQYDNLPLTFGGGTKVEIK
